Reference: the supplement of paper PMC9112550, “Optimization of the antimicrobial peptide Bac7 by deep mutational scanning” (BMC Biology, 2022)

System: Escherichia coli TOP10
Test: shrunken log2 fold change of peptide-encoding DNA abundance (4.5 h post-induction vs induction); higher = less antimicrobial activity (less host growth inhibition)
Settings: time post-induction: 4.5 h; library: site-saturation at positions 5, 18, 19, 20
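Note: peptides expressed intracellularly from a pBAD plasmid library in pooled LB shake-flask culture, induced with 0.3% L-arabinose, DNA abundance read by NGS, three biological replicates, DESeq2 with apeglm shrinkage.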

Row | Sequence | shrunken log2 fold change
1 | RRIRIRPPRLPRPRPRPLPVPRP | 0.094
2 | RRIRSRPPRLPRPRPRPIRCPRP | 0.00778
3 | RRIRSRPPRLPRPRPRPQFLPRP | -0.394
4 | RRIRMRPPRLPRPRPRPLSIPRP | -0.0206
5 | RRIRVRPPRLPRPRPRPPKMPRP | -0.0776
6 | RRIRLRPPRLPRPRPRPPFQPRP | 0.0582
7 | RRIRVRPPRLPRPRPRPDLIPRP | 0.0639
8 | RRIRVRPPRLPRPRPRPNPHPRP | -0.185
9 | RRIRFRPPRLPRPRPRPMQFPRP | -0.0783
10 | RRIRSRPPRLPRPRPRPDIKPRP | -0.336
11 | RRIRSRPPRLPRPRPRPSEFPRP | -0.306
12 | RRIRMRPPRLPRPRPRPMYRPRP | -0.0586
13 | RRIRIRPPRLPRPRPRPRGWPRP | 0.385
14 | RRIRGRPPRLPRPRPRPWHPPRP | 0.49
15 | RRIRCRPPRLPRPRPRPYYIPRP | -0.564
16 | RRIRSRPPRLPRPRPRPHMSPRP | -0.223
17 | RRIRARPPRLPRPRPRPLGLPRP | 0.353
18 | RRIRTRPPRLPRPRPRPSYRPRP | -0.271
19 | RRIRPRPPRLPRPRPRPKSLPRP | -0.015
20 | RRIRQRPPRLPRPRPRPVTMPRP | -0.0817
21 | RRIRWRPPRLPRPRPRPESTPRP | 1.17
22 | RRIRARPPRLPRPRPRPNRLPRP | 0.0862
23 | RRIRPRPPRLPRPRPRPFMWPRP | -0.168
24 | RRIRHRPPRLPRPRPRPQNVPRP | -0.0702
25 | RRIRGRPPRLPRPRPRPVDHPRP | 0.193

Row | Sequence | shrunken log2 fold change
26 | RRIRFRPPRLPRPRPRPTNVPRP | -0.254
27 | RRIRSRPPRLPRPRPRPEVTPRP | 0.501
28 | RRIRCRPPRLPRPRPRPWTPPRP | -0.131
29 | RRIRRRPPRLPRPRPRPNLSPRP | -0.0897
30 | RRIRSRPPRLPRPRPRPLVLPRP | -0.233
31 | RRIRDRPPRLPRPRPRPRVVPRP | 0.11
32 | RRIRDRPPRLPRPRPRPMSQPRP | -0.236
33 | RRIRLRPPRLPRPRPRPNSPPRP | -0.418
34 | RRIRVRPPRLPRPRPRPSQMPRP | -0.0502
35 | RRIRSRPPRLPRPRPRPPNTPRP | 0.158
36 | RRIRHRPPRLPRPRPRPYGEPRP | -1.23
37 | RRIRHRPPRLPRPRPRPRQHPRP | 0.0285
38 | RRIRERPPRLPRPRPRPWDCPRP | -0.0136
39 | RRIRQRPPRLPRPRPRPWAYPRP | -0.11
40 | RRIRQRPPRLPRPRPRPRWVPRP | 0.345
41 | RRIRERPPRLPRPRPRPKEGPRP | -0.129
42 | RRIRHRPPRLPRPRPRPRYWPRP | 0.319
43 | RRIRTRPPRLPRPRPRPGCEPRP | -0.117
44 | RRIRDRPPRLPRPRPRPAIDPRP | 0.336
45 | RRIRHRPPRLPRPRPRPMSDPRP | 0.00234
46 | RRIRKRPPRLPRPRPRPTYWPRP | 0.141
47 | RRIRVRPPRLPRPRPRPKRQPRP | 0.0464
48 | RRIRLRPPRLPRPRPRPHVIPRP | 0.0211
49 | RRIRDRPPRLPRPRPRPLGFPRP | -0.0377
50 | RRIRYRPPRLPRPRPRPVYCPRP | -0.416

Row | Sequence | shrunken log2 fold change
51 | RRIRPRPPRLPRPRPRPHIDPRP | -0.215
52 | RRIRNRPPRLPRPRPRPLGEPRP | -0.0638
53 | RRIRARPPRLPRPRPRPYPQPRP | -0.166
54 | RRIRIRPPRLPRPRPRPWGWPRP | 0.0753
55 | RRIRKRPPRLPRPRPRPAQRPRP | 0.946
56 | RRIRYRPPRLPRPRPRPEYCPRP | -0.414
57 | RRIRPRPPRLPRPRPRPLIGPRP | 0.009
58 | RRIRGRPPRLPRPRPRPADSPRP | 0.283
59 | RRIRSRPPRLPRPRPRPYMTPRP | -0.586
60 | RRIRHRPPRLPRPRPRPHKLPRP | -0.279
61 | RRIRLRPPRLPRPRPRPASSPRP | -0.0827
62 | RRIRVRPPRLPRPRPRPMSIPRP | -0.306
63 | RRIRTRPPRLPRPRPRPTYCPRP | -0.379
64 | RRIRWRPPRLPRPRPRPHIQPRP | -0.749
65 | RRIRFRPPRLPRPRPRPQQWPRP | -0.208
66 | RRIRCRPPRLPRPRPRPQSYPRP | -0.308
67 | RRIRERPPRLPRPRPRPAMMPRP | -0.163
68 | RRIRKRPPRLPRPRPRPSHLPRP | -0.124
69 | RRIRYRPPRLPRPRPRPKLRPRP | -0.111
70 | RRIRRRPPRLPRPRPRPLFGPRP | 0.649
71 | RRIRLRPPRLPRPRPRPWSCPRP | -0.136
72 | RRIRKRPPRLPRPRPRPTVFPRP | 0.0385
73 | RRIRIRPPRLPRPRPRPCQAPRP | -0.025
74 | RRIRDRPPRLPRPRPRPLCAPRP | 0.783
75 | RRIRRRPPRLPRPRPRPMREPRP | 0.0493

Row | Sequence | shrunken log2 fold change
76 | RRIRKRPPRLPRPRPRPLCNPRP | 1.06
77 | RRIRARPPRLPRPRPRPYYPPRP | -0.349
78 | RRIRHRPPRLPRPRPRPLVIPRP | -0.343
79 | RRIRFRPPRLPRPRPRPWVEPRP | -0.0273
80 | RRIRARPPRLPRPRPRPEFIPRP | -0.189
81 | RRIRLRPPRLPRPRPRPEITPRP | -0.11
82 | RRIRFRPPRLPRPRPRPIHVPRP | -0.335
83 | RRIRKRPPRLPRPRPRPAKEPRP | -0.0233
84 | RRIRDRPPRLPRPRPRPFALPRP | 0.206
85 | RRIRSRPPRLPRPRPRPTSWPRP | 0.239
86 | RRIRPRPPRLPRPRPRPVRDPRP | 0.146
87 | RRIRFRPPRLPRPRPRPKASPRP | 0.157
88 | RRIRTRPPRLPRPRPRPWLRPRP | -0.161
89 | RRIRHRPPRLPRPRPRPDCIPRP | -0.0444
90 | RRIRDRPPRLPRPRPRPELPPRP | 0.302
91 | RRIRCRPPRLPRPRPRPYVNPRP | -1.3
92 | RRIRKRPPRLPRPRPRPCFMPRP | -0.0787
93 | RRIRARPPRLPRPRPRPMDHPRP | 0.267
94 | RRIRGRPPRLPRPRPRPLCCPRP | 0.829
95 | RRIRDRPPRLPRPRPRPSIEPRP | 0.089
96 | RRIRHRPPRLPRPRPRPIFNPRP | -0.447
97 | RRIRFRPPRLPRPRPRPKPMPRP | 0.521
98 | RRIRQRPPRLPRPRPRPLYEPRP | -0.671
99 | RRIRRRPPRLPRPRPRPDRYPRP | -0.0438
100 | RRIRCRPPRLPRPRPRPAVSPRP | -0.345

Row | Sequence | shrunken log2 fold change
101 | RRIRDRPPRLPRPRPRPCSRPRP | 0.0202
102 | RRIRLRPPRLPRPRPRPMYDPRP | -0.787
103 | RRIRKRPPRLPRPRPRPYSSPRP | -0.239
104 | RRIRERPPRLPRPRPRPIWSPRP | 0.0428
105 | RRIRMRPPRLPRPRPRPWLAPRP | 0.0737
106 | RRIRFRPPRLPRPRPRPIYSPRP | -0.751
107 | RRIRSRPPRLPRPRPRPEHIPRP | 0.0843
108 | RRIRFRPPRLPRPRPRPCFHPRP | -0.894
109 | RRIRKRPPRLPRPRPRPMDPPRP | 0.115
110 | RRIRPRPPRLPRPRPRPAPRPRP | 0.992
111 | RRIRKRPPRLPRPRPRPCKYPRP | 0.0409
112 | RRIRSRPPRLPRPRPRPSRQPRP | -0.447
113 | RRIRFRPPRLPRPRPRPMTFPRP | -0.0585
114 | RRIRNRPPRLPRPRPRPSEDPRP | -0.145
115 | RRIRMRPPRLPRPRPRPGAKPRP | 1.48
116 | RRIRVRPPRLPRPRPRPSHAPRP | -0.24
117 | RRIRIRPPRLPRPRPRPNAHPRP | -0.0997
118 | RRIRIRPPRLPRPRPRPYMFPRP | -0.892
119 | RRIRLRPPRLPRPRPRPHWWPRP | 0.148
120 | RRIRLRPPRLPRPRPRPSNGPRP | -0.00256
121 | RRIRYRPPRLPRPRPRPRNMPRP | -0.56
122 | RRIRERPPRLPRPRPRPSQWPRP | -0.176
123 | RRIRDRPPRLPRPRPRPCGMPRP | 0.0207
124 | RRIRPRPPRLPRPRPRPTGGPRP | 0.392
125 | RRIRERPPRLPRPRPRPKHKPRP | -0.344
